Molecular target: T1, GST-Pelota (Arabidopsis thaliana, UniProt Q9ZT87 1-378)
T1 sequence (looked up): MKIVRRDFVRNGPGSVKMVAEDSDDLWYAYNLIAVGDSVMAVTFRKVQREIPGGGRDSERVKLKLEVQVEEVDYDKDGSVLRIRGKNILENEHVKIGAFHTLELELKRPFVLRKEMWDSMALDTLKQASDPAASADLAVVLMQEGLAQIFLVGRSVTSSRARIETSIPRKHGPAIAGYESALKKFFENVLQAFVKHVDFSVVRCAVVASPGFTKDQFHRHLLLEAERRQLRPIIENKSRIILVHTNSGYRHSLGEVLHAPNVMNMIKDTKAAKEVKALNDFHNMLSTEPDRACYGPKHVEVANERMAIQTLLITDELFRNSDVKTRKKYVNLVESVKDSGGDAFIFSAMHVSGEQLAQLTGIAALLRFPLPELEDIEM
Test: pull-down

B1: MBP-SCE1 (enzyme, Arabidopsis thaliana, UniProt Q42551 1-160, looked up)
chain: MASGIARGRLAEERKSWRKNHPHGFVAKPETGQDGTVNLMVWHCTIPGKAGTDWEGGFFPLTMHFSEDYPSKPPKCKFPQGFFHPNVYPSGTVCLSILNEDYGWRPAITVKQILVGIQDLLDTPNPADPAQTDGYHLFCQDPVEYKKRVKLQSKQYPALV
  binding result: binds

— article PMC11697363 (Nature Communications, 2025)
